“And” between values parts separate entries of the source, which are not always exact repeats. Equal entries are not always repeated.
Assays:
[1] = biological target: T1, human EphA2 ectodomain (human, UniProt P29317 24-537); assay: SPR (Biacore 8k), Fab-capture, 37C, 1:1 model;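 further: Anti-EphA2 IgG captured via immobilized anti-Fab, soluble EphA2 ectodomain as analyte at six twofold dilutions from 50 nM, HBS-EP+ pH 7.6 running buffer, double reference subtraction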
T1 construct: Soluble ectodomain used as the SPR analyte
T1 sequence (P29317 24-537 limits assumed): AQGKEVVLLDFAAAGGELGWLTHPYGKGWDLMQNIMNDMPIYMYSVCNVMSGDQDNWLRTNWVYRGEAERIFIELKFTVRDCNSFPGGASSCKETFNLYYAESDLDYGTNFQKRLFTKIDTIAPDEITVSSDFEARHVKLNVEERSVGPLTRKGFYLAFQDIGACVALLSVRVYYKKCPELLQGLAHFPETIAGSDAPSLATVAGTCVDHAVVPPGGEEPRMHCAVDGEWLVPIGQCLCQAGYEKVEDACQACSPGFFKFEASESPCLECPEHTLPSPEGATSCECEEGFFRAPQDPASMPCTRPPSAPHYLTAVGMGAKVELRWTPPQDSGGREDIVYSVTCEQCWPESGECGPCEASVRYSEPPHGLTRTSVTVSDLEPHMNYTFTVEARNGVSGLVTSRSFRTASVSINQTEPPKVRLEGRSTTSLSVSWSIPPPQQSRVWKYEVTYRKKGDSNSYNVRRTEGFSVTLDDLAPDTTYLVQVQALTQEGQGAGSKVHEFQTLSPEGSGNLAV
Experimental: (§1) A human Fab capture method was utilized in order to determine kinetics for the antibodies. […] Each channel has two flow cells. The reference flow cell contained only immobilized anti-Fab, whereas the reaction flow cell captured anti-EphA2 IgG through anti-Fab. HBS-EP+ Buffer, pH 7.6 was used as the running buffer. The soluble human, mouse and cyno EphA2 ectodomain flowed over both flow cells on 8 channels. The EphA2 ectodomain concentration started at 50 nM and was serially diluted at one part to one part (1:1) in the running buffer for six concentrations. The analysis chamber was kept at 37° C. Regeneration was performed at the end of each sample washing with the solution of 10 mM Glycine-HCl, pH 2.1 provided in the kit.
(§2) The data were analysed using the Biacore Insight Evaluation Software. Double reference subtraction was completed to generate the final data. The raw data was fitted to a 1:1 binding model, with parameter(s) Rₘₐₓ set to local.

[2] = biological target: T2, mouse EphA2 ectodomain (mouse, UniProt Q03145 26-538); assay: SPR (Biacore 8k), Fab-capture, 37C, 1:1 model;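 further: Anti-EphA2 IgG captured via immobilized anti-Fab, soluble EphA2 ectodomain as analyte at six twofold dilutions from 50 nM, HBS-EP+ pH 7.6 running buffer, double reference subtraction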
T2 construct: extracellular domain
T2 sequence (Q03145 26-538): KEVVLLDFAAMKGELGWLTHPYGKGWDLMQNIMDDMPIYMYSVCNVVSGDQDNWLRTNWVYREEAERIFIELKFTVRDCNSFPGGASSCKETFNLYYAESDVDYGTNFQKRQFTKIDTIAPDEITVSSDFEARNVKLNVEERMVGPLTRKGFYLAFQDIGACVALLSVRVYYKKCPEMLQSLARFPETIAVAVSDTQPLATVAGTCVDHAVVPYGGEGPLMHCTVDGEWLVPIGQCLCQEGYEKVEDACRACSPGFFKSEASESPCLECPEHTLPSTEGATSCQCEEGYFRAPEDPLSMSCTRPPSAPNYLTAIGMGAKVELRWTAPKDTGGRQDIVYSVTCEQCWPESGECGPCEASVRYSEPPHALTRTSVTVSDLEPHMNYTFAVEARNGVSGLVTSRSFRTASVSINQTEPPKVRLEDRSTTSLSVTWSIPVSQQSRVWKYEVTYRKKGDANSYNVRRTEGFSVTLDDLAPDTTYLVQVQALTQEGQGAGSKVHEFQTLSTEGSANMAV
Experimental: as §1, §2

[3] = biological target: T3, cyno EphA2 ectodomain (cyno, UniProt Q1KL86 25-537); assay: SPR (Biacore 8k), Fab-capture, 37C, 1:1 model;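 further: Anti-EphA2 IgG captured via immobilized anti-Fab, soluble EphA2 ectodomain as analyte at six twofold dilutions from 50 nM, HBS-EP+ pH 7.6 running buffer, double reference subtraction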
T3 construct: extracellular domain
T3 sequence (Q1KL86 25-537): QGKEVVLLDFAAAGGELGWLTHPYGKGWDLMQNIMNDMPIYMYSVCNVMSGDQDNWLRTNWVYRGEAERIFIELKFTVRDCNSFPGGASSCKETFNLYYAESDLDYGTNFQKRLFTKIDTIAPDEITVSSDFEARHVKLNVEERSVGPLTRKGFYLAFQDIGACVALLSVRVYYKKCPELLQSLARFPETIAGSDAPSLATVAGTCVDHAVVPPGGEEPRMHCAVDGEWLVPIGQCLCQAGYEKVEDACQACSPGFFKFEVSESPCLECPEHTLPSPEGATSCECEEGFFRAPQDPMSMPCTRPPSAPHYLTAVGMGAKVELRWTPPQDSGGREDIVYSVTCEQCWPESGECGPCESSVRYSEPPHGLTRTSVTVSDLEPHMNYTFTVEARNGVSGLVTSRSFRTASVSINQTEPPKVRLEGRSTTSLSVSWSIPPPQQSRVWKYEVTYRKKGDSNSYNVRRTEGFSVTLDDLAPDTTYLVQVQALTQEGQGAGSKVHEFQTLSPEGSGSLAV
Experimental: as §1, §2

[4] = biological target: T4, human EphA2 expressed on HKB-11 cells (human, UniProt P29317 24-976); assay: KinExA apparent (avid) equilibrium KD on human EphA2 HKB-11 cells
T4 construct: The HKB-11 cells were transduced to overexpress EphA2; also called HKB-11 EphA2+ cell line
T4 sequence (P29317 24-976 limits assumed): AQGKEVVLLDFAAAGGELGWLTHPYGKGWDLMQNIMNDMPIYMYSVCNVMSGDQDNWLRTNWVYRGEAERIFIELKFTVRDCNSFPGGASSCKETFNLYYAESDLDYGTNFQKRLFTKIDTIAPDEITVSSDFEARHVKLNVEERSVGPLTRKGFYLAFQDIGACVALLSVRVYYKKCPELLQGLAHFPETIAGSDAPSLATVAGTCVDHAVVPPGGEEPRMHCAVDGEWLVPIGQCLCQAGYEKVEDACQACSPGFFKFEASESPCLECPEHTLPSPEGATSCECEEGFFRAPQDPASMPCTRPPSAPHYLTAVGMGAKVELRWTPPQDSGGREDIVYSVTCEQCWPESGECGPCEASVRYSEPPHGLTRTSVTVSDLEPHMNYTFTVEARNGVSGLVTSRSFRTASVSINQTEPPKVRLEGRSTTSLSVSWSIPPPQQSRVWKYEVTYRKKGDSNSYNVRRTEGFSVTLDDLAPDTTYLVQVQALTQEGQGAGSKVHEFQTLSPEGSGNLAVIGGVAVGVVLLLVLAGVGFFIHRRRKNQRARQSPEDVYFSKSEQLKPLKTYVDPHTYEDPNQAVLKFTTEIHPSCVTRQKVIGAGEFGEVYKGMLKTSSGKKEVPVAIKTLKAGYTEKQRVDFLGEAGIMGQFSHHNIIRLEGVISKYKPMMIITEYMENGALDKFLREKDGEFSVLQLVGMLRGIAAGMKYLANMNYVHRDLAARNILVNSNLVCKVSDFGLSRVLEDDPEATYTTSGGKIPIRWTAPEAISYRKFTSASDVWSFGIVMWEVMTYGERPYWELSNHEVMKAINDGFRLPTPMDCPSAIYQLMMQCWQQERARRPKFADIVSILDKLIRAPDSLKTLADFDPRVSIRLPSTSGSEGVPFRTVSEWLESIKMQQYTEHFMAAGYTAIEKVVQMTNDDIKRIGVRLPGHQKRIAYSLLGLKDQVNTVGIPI
Experimental: (§3) Free antibody in equilibrium titration reactions were measured by KinExA using a KinExA 3200, Autosampler (Sapidyne). Data were analyzed using KinExA Pro 4-5-X (Sapidyne).
(§4) Anti-EphA2 antibody was diluted in PBS with 10% HI-FBS and 0.04% sodium azide to 2× the final concentration of binding sites needed for equilibrium titration. […] Cells and antibody were combined 1:1 in an eppendorf tube and incubated overnight, 4° C., rotating. Buffer and antibody alone samples were included. Cells were pelleted and supernatants were transferred to a 2 ml 96-well deep well plate covered with pierceable film.
Data were analyzed by n-Curve Analysis.

[5] = biological target: T4, human EphA2 expressed on HKB-11 cells; assay: flow cytometry on HKB-11 cells overexpressing EphA2; lot ZE-39-AG34
Experimental: (§5) The binding affinity of EphA2 antibodies on cells was evaluated using flow cytometry (FACS). […] Cell lines were cultured in media that is optimal for their growth at 5% CO₂, 37° C. in a tissue culture incubator. Cell viability and cell density were determined using a cell counter (Vi-Cell XR Cell Viability Analyzer, Beckman Coulter). […] All subsequent steps were performed on ice and in ice cold FACS buffer to prevent internalization of the receptor. Cells were resuspended in 100 μL of FACS buffer containing an 11-point serial dilution of test antibodies at final concentrations of 200 nM-0.003 nM. Cells were incubated at 4° C. for 45 minutes. Following incubation, cells were washed three times in ice cold PBS at 1000 rpm for 5 minutes with 200 μL FACS buffer. […] Cells were incubated in the dark at 4° C. for 45 minutes. Following incubation, cells were washed three times in ice cold PBS at 1000 rpm for 5 minutes with 200 μL FACS buffer. Cells were then resuspended in 100 μL FACS buffer containing DAPI (ThermoFisher, #D1306) staining followed by readout via flow cytometry (MACSQuant® Analyzer 10). Data was analyzed using FlowJo v10.8.1 to obtain MFI (Mean Fluorescence Intensity) on live cells. EC₅₀ values were calculated using the GraphPad Prism 9 software. There were three rounds of experiments performed to evaluate three groupings of EphA2 antibodies. […]

[6] = biological target: T4, human EphA2 expressed on HKB-11 cells; assay: flow cytometry on HKB-11 cells overexpressing EphA2; lot ZF-74-CQ11
Experimental: as §5

[7] = biological target: T4, human EphA2 expressed on HKB-11 cells; assay: flow cytometry on HKB-11 cells overexpressing EphA2; lot HD-58-MP05
Experimental: as §5

[8] = biological target: T2, mouse EphA2 ectodomain; assay: SPR (Biacore 8k), Fab-capture, 37C
Experimental: as §1, §2

[9] = biological target: T3, cyno EphA2 ectodomain; assay: SPR (Biacore 8k), Fab-capture, 37C
Experimental: as §1, §2

[10] = biological target: T1, human EphA2 ectodomain; assay: SPR (Biacore 8k), Fab-capture, 37C, 1:1 model; *low binding signal;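 on koff: Anti-EphA2 IgG captured via immobilized anti-Fab, soluble EphA2 ectodomain as analyte at six twofold dilutions from 50 nM, HBS-EP+ pH 7.6 running buffer, double reference subtraction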
Experimental: as §1, §2

[11] = biological target: T3, cyno EphA2 ectodomain; assay: as above
Experimental: as §1, §2

[12] = biological target: T4, human EphA2 expressed on HKB-11 cells; assay: flow cytometry on HKB-11 cells overexpressing EphA2; lot PA-62-QD06
Experimental: as §5

[13] = biological target: T4, human EphA2 expressed on HKB-11 cells; assay: KinExA avid equilibrium KD on cells, average of replicates
Experimental: as §3, §4
Data were analyzed by n-Curve Analysis.

[14] = biological target: T4, human EphA2 expressed on HKB-11 cells; assay: flow cytometry on HKB-11 cells overexpressing EphA2; lot DE-39-AD34
Experimental: as §5

[15] = biological target: T4, human EphA2 expressed on HKB-11 cells; assay: flow cytometry on HKB-11 cells overexpressing EphA2; lot FE-76-NO13
Experimental: as §5

[16] = biological target: T2, mouse EphA2 ectodomain; assay: SPR (Biacore 8k), Fab-capture, 37C, 1:1 model; *low binding signal
Experimental: as §1, §2

[17] = biological target: T4, human EphA2 expressed on HKB-11 cells; assay: flow cytometry on HKB-11 cells overexpressing EphA2; lot DC-69-ID09
Experimental: as §5

Binder	Kd [1]	Kd [2]	Kd [3]	Kd [4]	koff [1]	kon [1]	koff [2]	kon [2]	koff [3]	kon [3]	Kd [10]	Kd [11]	also measured
anti-EphA2 E152C S375C 1C1 (LC G77S) hIgG1 (WT Heavy Chain) (antibody, V domains shown, also called 1C1 G77S IgG; ZF-74-CQ11) VH: EVQLLESGGGLVQPGGSLRLSCAASGFTFSHYMMAWVRQAPGKGLEWVSRIGPSGGPTHYADSVKGRFTISRDNSKNTLYLQMNSLRAEDTAVYYCAGYDSGYDYVAVAGPAEYFQHWGQGTLVTVSS VL: DIQMTQSPSSLSASVGDRVTITCRASQSISTWLAWYQQKPGKAPKLLIYKASNLHTGVPSRFSGSGSGTEFSLTISSLQPDDFATYYCQQYNSYSRTFGQGTKVEIKR	0.186 µM	0.369 µM	0.222 µM	0.000171 µM									EC50 [5]: 0.00221 µM; EC50 [6]: 0.00373 µM
anti-EphA2 E152C S375C 1C1 (LC S93A) hIgG1 (WT Heavy Chain) (antibody, V domains shown, also called HD-58-MP05) VH: EVQLLESGGGLVQPGGSLRLSCAASGFTFSHYMMAWVRQAPGKGLEWVSRIGPSGGPTHYADSVKGRFTISRDNSKNTLYLQMNSLRAEDTAVYYCAGYDSGYDYVAVAGPAEYFQHWGQGTLVTVSS VL: DIQMTQSPSSLSASVGDRVTITCRASQSISTWLAWYQQKPGKAPKLLIYKASNLHTGVPSRFSGSGSGTEFSLTISGLQPDDFATYYCQQYNAYSRTFGQGTKVEIKR	0.265 µM	0.343 µM	0.259 µM		0.131 s⁻¹	493000 M⁻¹ s⁻¹	0.0625 s⁻¹	182000 M⁻¹ s⁻¹	0.181 s⁻¹	697000 M⁻¹ s⁻¹			EC50 [7]: 0.00344 µM
anti-EphA2 E152C S375C 1C1 (LC N92A) hIgG1 (WT Heavy Chain) (antibody, V domains shown, also called BC-56-WI24) VH: EVQLLESGGGLVQPGGSLRLSCAASGFTFSHYMMAWVRQAPGKGLEWVSRIGPSGGPTHYADSVKGRFTISRDNSKNTLYLQMNSLRAEDTAVYYCAGYDSGYDYVAVAGPAEYFQHWGQGTLVTVSS VL: DIQMTQSPSSLSASVGDRVTITCRASQSISTWLAWYQQKPGKAPKLLIYKASNLHTGVPSRFSGSGSGTEFSLTISGLQPDDFATYYCQQYASYSRTFGQGTKVEIKR													binding result [8]: no binding (tested: EphA2 ectodomain titrated from 50 nM); binding result [9]: no binding (tested: EphA2 ectodomain titrated from 50 nM)
anti-EphA2 E152C S375C 1C1 (LC S93V) hIgG1 (WT Heavy Chain) (antibody, V domains shown, also called PA-62-QD06) VH: EVQLLESGGGLVQPGGSLRLSCAASGFTFSHYMMAWVRQAPGKGLEWVSRIGPSGGPTHYADSVKGRFTISRDNSKNTLYLQMNSLRAEDTAVYYCAGYDSGYDYVAVAGPAEYFQHWGQGTLVTVSS VL: DIQMTQSPSSLSASVGDRVTITCRASQSISTWLAWYQQKPGKAPKLLIYKASNLHTGVPSRFSGSGSGTEFSLTISGLQPDDFATYYCQQYNVYSRTFGQGTKVEIKR		0.286 µM			0.0792 s⁻¹	296000 M⁻¹ s⁻¹	0.0508 s⁻¹	178000 M⁻¹ s⁻¹	0.105 s⁻¹	428000 M⁻¹ s⁻¹	0.268 µM	0.246 µM	EC50 [12]: 0.0202 µM
anti-EphA2 E152C S375C 1C1 (LC S72T) hIgG1 (WT Heavy Chain) (antibody, V domains shown, also called 1C1 S72T IgG; FE-76-NO13) VH: EVQLLESGGGLVQPGGSLRLSCAASGFTFSHYMMAWVRQAPGKGLEWVSRIGPSGGPTHYADSVKGRFTISRDNSKNTLYLQMNSLRAEDTAVYYCAGYDSGYDYVAVAGPAEYFQHWGQGTLVTVSS VL: DIQMTQSPSSLSASVGDRVTITCRASQSISTWLAWYQQKPGKAPKLLIYKASNLHTGVPSRFSGSGSGTEFTLTISGLQPDDFATYYCQQYNSYSRTFGQGTKVEIKR	0.216 µM	0.377 µM	0.23 µM	0.000132 µM and 0.000143 µM	0.0518 s⁻¹	240000 M⁻¹ s⁻¹	0.0512 s⁻¹	136000 M⁻¹ s⁻¹	0.17 s⁻¹	737000 M⁻¹ s⁻¹			Kd [13]: 0.000137 µM; EC50 [14]: 0.00212 µM; EC50 [15]: 0.00319 µM
anti-EphA2 E152C S375C 1C1 (LC S10T_S72T_G77S) hIgG1 (WT Heavy Chain) (antibody, V domains shown, also called 3x germ) VH: EVQLLESGGGLVQPGGSLRLSCAASGFTFSHYMMAWVRQAPGKGLEWVSRIGPSGGPTHYADSVKGRFTISRDNSKNTLYLQMNSLRAEDTAVYYCAGYDSGYDYVAVAGPAEYFQHWGQGTLVTVSS VL: DIQMTQSPSTLSASVGDRVTITCRASQSISTWLAWYQQKPGKAPKLLIYKASNLHTGVPSRFSGSGSGTEFTLTISSLQPDDFATYYCQQYNSYSRTFGQGTKVEIKR					0.0996 s⁻¹	250000 M⁻¹ s⁻¹	0.0635 s⁻¹	193000 M⁻¹ s⁻¹	0.121 s⁻¹	886000 M⁻¹ s⁻¹	0.398 µM	0.137 µM	Kd [16]: 0.328 µM; EC50 [17]: 0.0239 µM

— patent US20260027220A1, “EPHA2 BCL-XL INHIBITOR ANTIBODY-DRUG CONJUGATES AND METHODS OF USE THEREOF” (Novartis AG, priority 2022, published 2026)
